Measured values published in US11396544 (dated 2022).

B1: REGN5838 (CD22 arm) (antibody, V domains shown)
VH: EVQLVESGGGLVQPGGSLKLSCAASGFTFSGSDMHWVRQASGKGLEWVGRIRNQPNSYATAYAASVKGRFTISRDDSKNTAHLQMNSLKTEDTAVYFCTRQKQVVYNYHHYYGMDVWGQGTTVTVSS
VL: not shown
B2: REGN5838 (CD28 arm) (antibody, V domains shown)
VH: QVQLQESGPGLVKPSETLSLTCTVSGGSISSYYWSWIRQPPGKGLEWIGYIYYSGITHYNPSLKSRVTISVDTSKIQFSLKLSSVTAADTAVYYCARWGVRRDYYYYGMDVWGQGTTVTVSS
VL: not shown
B3: REGN5837 (CD22 arm) (antibody, V domains shown)
VH: EVQLVQSGAEVKKPGESLKISCKGSGYNFATYWIAWVRQMPGKGLELMGIIYPGDSETTYNPSFQGQVTISADKSISNAYLQWSSLKASDTAMYYCARVGGYCSGTSCHNWFDPWGLGTLVTVSS
VL: not shown
B4: REGN5837 (CD28 arm) (antibody, V domains shown)
VH: QVQLQESGPGLVKPSETLSLTCTVSGGSISSYYWSWIRQPPGKGLEWIGYIYYSGITHYNPSLKSRVTISVDTSKIQFSLKLSSVTAADTAVYYCARWGVRRDYYYYGMDVWGQGTTVTVSS
VL: not shown

Assays:
[1] = target: T1, human CD22 (cell surface) (human, UniProt P20273); test: FACS, Nalm6
[2] = target: T1, human CD22 (cell surface); test: FACS, HEK293/hCD20/hCD22
[3] = target: T1, human CD22 (cell surface); test: FACS, Raji/CD80 and CD86 negative
[4] = target: hCD28.mmH (human); test: SPR, 25C
[5] = target: human CD28 (cell surface) (human, UniProt P10747); test: FACS, Jurkat

EC50 [1] [nM] | EC50 [2] [nM] | EC50 [3] [nM] | Kd [4] [nM] | EC50 [5] [nM] | Binder
18 | 11.4 | 14.9 |  |  | B1
 |  |  | 404 | 23 | B2
13 |  | 9.76 |  |  | B3
 |  |  |  | 21 | B4
